# Legend:
# [1] = substrate: NC(=O)C1=CN([C@@H]2O[C@H](COP(=O)(O)OP(=O)(O)OC[C@H]3O[C@@H](n4cnc5c(N)ncnc54)[C@H](OP(=O)(O)O)[C@@H]3O)[C@@H](O)[C@H]2O)C=CC1; test: cells, lysate or membranes; assay type: biochemical, Fructilactobacillus sanfranciscensis; details: 50 mM potassium phosphate pH 7.0, 25 °C, air-saturated O2 (250 µM), cell free extract
# [2] = substrate: NC(=O)C1=CN([C@@H]2O[C@H](COP(=O)(O)OP(=O)(O)OC[C@H]3O[C@@H](n4cnc5c(N)ncnc54)[C@H](O)[C@@H]3O)[C@@H](O)[C@H]2O)C=CC1; test: cells, lysate or membranes; assay type: biochemical, Fructilactobacillus sanfranciscensis; details: 50 mM potassium phosphate pH 7.0, 25 °C, air-saturated O2 (250 µM), cell free extract
protein,measurement,setting,value
"LsNOX (Lactobacillus sanfranciscensis NOX) (Fructilactobacillus sanfranciscensis) (protein, synthetic gene, plasmid pMSsN2, E. coli BL21 (DE3), untagged, cell free extract, about 50 kDa) MKVIVVGCTHAGTFAVKQTIADHPDADVTAYEMNDNISFLSCGIALYLGKEIKNNDPRGLFYSSPEELSNLGANVQMRHQVTNVDPETKTIKVKDLITNEEKTEAYDKLIMTTGSKPTVPPIPGIDSSRVYLCKNYNDAKKLFEEAPKAKTITIIGSGYIGAELAEAYSNQNYNVNLIDGHERVLYKYFDKEFTDILAKDYEAHGVNLVLGSKVAAFEEVDDEIITKTLDGKEIKSDIAILCIGFRPNTELLKGKVAMLDNGAIITDEYMHSSNRDIFAAGDSAAVHYNPTNSNAYIPLATNAVRQGRLVGLNLTEDKVKDMGTQSSSGLKLYGRTYVSTGINTALAKANNLKVSEVIIADNYRPEFMLSTDEVLMSLVYDPKTRVILGGALSSMHDVSQSANVLSVCIQNKNTIDDLAMVDMLFQPQFDRPFNYLNILGQAAQAQADKAHK",Km,[1],5 ± 1 µM
same,Vmax,[1],1.1 µmol/min/mg
same,Km,[2],9 ± 1 µM
same,Vmax,[2],2.2 µmol/min/mg

# Source: paper PMC3995211
